# Results: patent US5801039
# Residue numbers refer to the chain shown, from its start. Names may count otherwise.
# T1: succinyl-L-alanyl-L-alanyl-L-prolyl-L-phenylalanyl-p-nitroanilide
# T1 sequence (peptide, N-terminal succinyl; C-terminal p-nitroanilide): AAPF
# B1: Bacillus lentus DSM 5483 alkaline protease (BLAP), wild type enzyme (enzyme)
# chain: AQSVPWGISRVQAPAAHNRGLTGSGVKVAVLDTGISTHPDLNIRGGASFVPGEPSTQDGNGHGTHVAGTIAALNNSIGVLGVAPSAELYAVKVLGADGRGAISSIAQGLEWAGNNGMHVANLSLGSPSPSATLEQAVNSATSRGVLVVAASGNSGASSISYPARYANAMAVGATDQNNNRASFSQYGAGLDIVAPGVNVQSTYPGSTYASLNGTSMATPHVAGAAALVKQKNPSWSNVQIRNHLKNTATSLGSTNLYGSGLVNAEAATR
# B2: BLAP mutant F46 (S3T + V4I + S154E + A188P + V193M + V199I) (enzyme)
# chain: B1 chain with S3T, V4I, S154E, A188P, V193M, V199I
# B3: BLAP mutant F44 (S3T + V4I + R99A + A188P + V193M + V199I) (enzyme)
# chain: B1 chain with S3T, V4I, R99A, A188P, V193M, V199I
# B4: BLAP mutant F45 (S3T + V4I + R99S + A188P + V193M + V199I) (enzyme)
# chain: B1 chain with S3T, V4I, R99S, A188P, V193M, V199I
# B5: BLAP variant M131 (S3T + V4I + A188P + V193M + V199I) (enzyme)
# chain: B1 chain with S3T, V4I, A188P, V193M, V199I
# B6: BLAP mutant F55 (S3T + V4I + S154E + A188P + V193M + V199I + L211D) (enzyme)
# chain: B1 chain with S3T, V4I, S154E, A188P, V193M, V199I, L211D
# B7: BLAP mutant F47 (S3T + V4I + S154D + A188P + V193M + V199I) (enzyme)
# chain: B1 chain with S3T, V4I, S154D, A188P, V193M, V199I
# B8: BLAP mutant F43 (S3T + V4I + R99G + A188P + V193M + V199I) (enzyme)
# chain: B1 chain with S3T, V4I, R99G, A188P, V193M, V199I
# B9: BLAP mutant F11 (S3T + R99S + A188P + V193M + V199I) (enzyme)
# chain: B1 chain with S3T, R99S, A188P, V193M, V199I
# B10: BLAP mutant F49 (S3T + V4I + A188P + V193M + V199I + L211D) (enzyme)
# chain: B1 chain with S3T, V4I, A188P, V193M, V199I, L211D
# B11: BLAP mutant F54 (S3T + V4I + R99G + A188P + V193M + V199I + L211D) (enzyme)
# chain: B1 chain with S3T, V4I, R99G, A188P, V193M, V199I, L211D
# Biological target: T1, succinyl-L-alanyl-L-alanyl-L-prolyl-L-phenylalanyl-p-nitroanilide
row,Binder,kcat · Km^-1
1,B1,297000 M⁻¹ s⁻¹
2,B2,179000 M⁻¹ s⁻¹
3,B3,103000 M⁻¹ s⁻¹
4,B4,68000 M⁻¹ s⁻¹
5,B5,156000 M⁻¹ s⁻¹
6,B6,2600 M⁻¹ s⁻¹
7,B7,124000 M⁻¹ s⁻¹
8,B8,99000 M⁻¹ s⁻¹
9,B9,92000 M⁻¹ s⁻¹
10,B10,11000 M⁻¹ s⁻¹
11,B11,1300 M⁻¹ s⁻¹

# Biological target: casein (prepared according to Hammarsten; Merck, Darmstadt, #2242)
row,Binder,Specific Activity (HPE · mg^-1)
1,B1,4000 HPE · mg^-1
2,B2,3180 HPE · mg^-1
3,B3,3750 HPE · mg^-1
4,B4,3710 HPE · mg^-1
5,B5,3670 HPE · mg^-1
6,B6,3200 HPE · mg^-1
7,B7,3610 HPE · mg^-1
8,B8,3780 HPE · mg^-1
9,B9,3760 HPE · mg^-1
10,B10,4610 HPE · mg^-1
11,B11,2510 HPE · mg^-1
